Measured values as given in US20190300590A1 (PROTAGONIST THERAPEUTICS, published 2019).
Read-outs that look alike come from different tables or passages of the source. *1 amine or outer side, *2 acyl side, *3 side chain or, on linkers, in order; H or OH if unused. Bridges are numbered along the chain shown (N, C = ends). [ ]: non-standard residue; d: D form. Phe(4-OMe) = 4-methoxy-L-phenylalanine (O-methyl-L-tyrosine), COc1ccc(C[C@H](N[*:1])C(=O)[*:2])cc1; Phe(3,4-(OMe)2) = COc1ccc(C[C@H](N)C(=O)O)cc1OC; 2Nal = N[C@@H](Cc1ccc2ccccc2c1)C(=O)O; AEF = NCCOc1ccc(C[C@H](N)C(=O)O)cc1; Cit = NC(=O)NCCC[C@H](N)C(=O)O; αMeL = CC(C)C[C@](C)(N)C(=O)O; αMeK = C[C@](N)(CCCCN)C(=O)O; αMeV = CC(C)[C@](C)(N)C(=O)O; Thp = NC1(C(=O)O)CCOCC1; Abu = CC[C@H](N)C(=O)O; Aib = CC(C)(N)C(=O)O

T1: IL-23R on human cells (IL-23R-expressing DB cells; human NK cells) (human, UniProt Q5VWK5 24-629)
T1 sequence (looked up): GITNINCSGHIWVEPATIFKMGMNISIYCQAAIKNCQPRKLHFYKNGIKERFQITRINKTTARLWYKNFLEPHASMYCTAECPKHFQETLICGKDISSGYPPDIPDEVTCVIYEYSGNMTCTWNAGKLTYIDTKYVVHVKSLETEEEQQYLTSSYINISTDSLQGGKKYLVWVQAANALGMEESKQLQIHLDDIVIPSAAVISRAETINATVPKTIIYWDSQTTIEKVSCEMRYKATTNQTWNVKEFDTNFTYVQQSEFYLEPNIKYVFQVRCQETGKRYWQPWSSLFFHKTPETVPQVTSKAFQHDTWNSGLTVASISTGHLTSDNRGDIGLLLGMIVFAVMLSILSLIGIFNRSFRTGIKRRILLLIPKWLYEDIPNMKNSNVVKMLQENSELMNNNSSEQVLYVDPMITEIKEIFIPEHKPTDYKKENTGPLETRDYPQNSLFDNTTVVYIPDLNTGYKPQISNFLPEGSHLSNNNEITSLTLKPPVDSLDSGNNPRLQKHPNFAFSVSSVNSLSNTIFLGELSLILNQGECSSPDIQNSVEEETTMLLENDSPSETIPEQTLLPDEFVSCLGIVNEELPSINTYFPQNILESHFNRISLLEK

T2: IL-23R on DB cells (human, UniProt Q5VWK5 24-629)
T2 sequence (looked up): T1 sequence (looked up)

T3: IL23R_huFC (human, UniProt Q5VWK5 24-353)
T3 sequence (looked up): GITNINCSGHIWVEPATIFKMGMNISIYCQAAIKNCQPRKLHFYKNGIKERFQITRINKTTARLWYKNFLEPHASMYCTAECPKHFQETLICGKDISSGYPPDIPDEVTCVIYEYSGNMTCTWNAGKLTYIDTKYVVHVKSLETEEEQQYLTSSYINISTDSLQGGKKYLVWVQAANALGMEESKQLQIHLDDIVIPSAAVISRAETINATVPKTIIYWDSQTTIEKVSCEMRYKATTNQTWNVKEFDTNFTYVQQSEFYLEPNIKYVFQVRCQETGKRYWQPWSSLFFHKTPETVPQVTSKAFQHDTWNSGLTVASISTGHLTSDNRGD

B1: Ac-[(D)Phe]-Cyclo-[[Abu]-QTWQC]-[Phe[4-(2-aminoethoxy)]]-[2-Nal]-[α-MeLys]-ENN-NH2 (peptide)
peptide: Ac-[dF][Abu]QTWQC[AEF][2Nal][αMeK]ENN-NH2
modifications: thioether 2-7
B2: [Ac-[Pen]-NTWQ-[Pen]-[Phe(4-CONH2)]-[2-Nal]-[α-MeLeu]-KNN-NH2]2DIG (peptide)
peptide: XNTWQXFXLKNN
modifications: Ac; Pen-Pen disulfide; Phe(4-CONH2); 2-Nal; α-MeLeu; NH2; DIG linker joins the two subunits
B3: [Ac-[Pen]-NTWQ-[Pen]-[Phe(4-CONH2)]-[2-Nal]-[Acvc]-KNN-NH2]2DIG (peptide)
peptide: XNTWQXFXXKNN
modifications: Ac; Pen-Pen disulfide; Phe(4-CONH2); 2-Nal; Acvc; NH2; DIG linker joins the two subunits
B4: [Ac-[Pen]-NTWQ-[Pen]-[Phe(4-CONH2)]-[2-Nal]-[Aib]-KNN-NH2]2DIG (peptide)
peptide: XNTWQXFXXKNN
modifications: Ac; Pen-Pen disulfide; Phe(4-CONH2); 2-Nal; Aib; NH2; DIG linker joins the two subunits
B5: [Ac-[Pen]-NTWQ-[Pen]-[Phe(4-CONH2)]-[2-Nal]-[4-amino-4-carboxy-tetrahydropyran]-KNN-NH2]2DIG (peptide)
peptide: XNTWQXFXXKNN
modifications: Ac; Pen-Pen disulfide; Phe(4-CONH2); 2-Nal; 4-amino-4-carboxy-tetrahydropyran; NH2; DIG linker joins the two subunits
B6: Ac-Cyclo-[[Abu]-QTWQC]-[Phe[4-(2-aminoethoxy)]]-[Phe(3,4-OMe2]-[α-MeLys]-[Lys(Ac)]-NG-NH2 (peptide)
peptide: Ac-[Abu]QTWQC[AEF][Phe(3,4-(OMe)2)][αMeK]K(Ac)NG-NH2
modifications: thioether 1-6
B7: Ac-Cyclo-[[Abu]-QTWQC]-[Phe(4-OMe)]-[2-Nal]-[α-MeLys]-ENG-NH2 (peptide)
peptide: Ac-[Abu]QTWQC[Phe(4-OMe)][2Nal][αMeK]ENG-NH2
modifications: thioether 1-6
B8: Ac-Cyclo-[[Abu]-QTWQC]-[Phe[4-(2-aminoethoxy)]]-[2-Nal]-α-MeVal]-[Lys(Ac)]-NG-NH2 (peptide)
peptide: Ac-[Abu]QTWQC[AEF][2Nal][αMeV]K(Ac)NG-NH2
modifications: thioether 1-6
B9: Ac-Cyclo-[[Abu]-QTWQC]-[Phe[4-(2-aminoethoxy)]]-[2-Nal]-[α-MeLys]-ENQ-NH2 (peptide)
peptide: Ac-[Abu]QTWQC[AEF][2Nal][αMeK]ENQ-NH2
modifications: thioether 1-6
B10: Ac-Cyclo-[[Abu]-QTWQC]-[Phe[4-(2-aminoethoxy)]]-[2-Nal]-[α-MeLys]-ENN-NH2 (peptide)
peptide: Ac-[Abu]QTWQC[AEF][2Nal][αMeK]ENN-NH2
modifications: thioether 1-6
B11: Ac-Cyclo-[[Abu]-QTWQC]-[Phe[4-(2-aminoethoxy)]]-[2-Nal]-[4-amino-4-carboxy-tetrahydropyran]-ENN-NH2 (peptide)
peptide: Ac-[Abu]QTWQC[AEF][2Nal][Thp]ENN-NH2
modifications: thioether 1-6
B12: Ac-Cyclo-[[Abu]-QTWQC]-[Phe[4-(2-aminoethoxy)]]-[2-Nal]-[Aib]-QNG-NH2 (peptide)
peptide: Ac-[Abu]QTWQC[AEF][2Nal][Aib]QNG-NH2
modifications: thioether 1-6
B13: Ac-Cyclo-[[Abu]-QTWQC]-[Phe[4-(2-aminoethoxy)]]-[2-Nal]-[Aib]-[Lys(Ac)]-NA-NH2 (peptide)
peptide: Ac-[Abu]QTWQC[AEF][2Nal][Aib]K(Ac)NA-NH2
modifications: thioether 1-6
B14: [Ac-[Pen]-NTWQ-[Pen]-[Phe(4-CONH2)]-[2-Nal]-[Achc]-KNN-NH2]2DIG (peptide)
peptide: XNTWQXFXXKNN
modifications: Ac; Pen-Pen disulfide; Phe(4-CONH2); 2-Nal; Achc; NH2; DIG linker joins the two subunits
B15: Ac-Cyclo-[[Abu]-QTWQC]-[Phe[4-(2-aminoethoxy)]]-[2-Nal]-[α-MeLeu)-[Cit]-NN-NH2 (peptide)
peptide: Ac-[Abu]QTWQC[AEF][2Nal][αMeL][Cit]NN-NH2
modifications: thioether 1-6

Assays:
Rat IL-23R_huFC [1] = target: Rat IL-23R_huFC (rat); assay: rat ELISA vs IL-23
[2] = target: T1, IL-23R on human cells …; assay: cell-based or functional assay
IL-23R on DB cells = target: T2, IL-23R on DB cells; assay: cell-based or functional assay
[3] = target: T1, IL-23R on human cells …; assay: cell-based or functional assay; remark: listed apart in the source
Rat IL-23R_huFC [4] = target: Rat IL-23R_huFC (rat); assay: rat ELISA vs IL-23; remark: listed apart in the source
IL23R_huFC [5] = target: T3, IL23R_huFC; assay: human ELISA vs IL-23
Rat IL-23R_huFC [6] = target: Rat IL-23R_huFC (rat); assay: rat ELISA vs IL-23; remark: listed apart in the source
IL23R_huFC [7] = target: T3, IL23R_huFC; assay: human ELISA vs IL-23; remark: listed apart in the source

| Binder | IC50 (Rat IL-23R_huFC [1]) | NK cell assay IC50 (IFNγ) [2] | pStat3 HTRF IC50 (IL-23R on DB cells) | pStat3 HTRF IC50 [3] | IC50 (Rat IL-23R_huFC [4]) | IC50 (IL23R_huFC [5]) | IC50 (Rat IL-23R_huFC [6]) | IC50 (IL23R_huFC [7]) |
| --- | --- | --- | --- | --- | --- | --- | --- | --- |
| B1 | < 10 nM | < 25 nM | – | – | – | – | – | – |
| B2 | – | – | < 10 nM | – | – | – | – | – |
| B3 | – | – | < 10 nM | – | – | – | – | – |
| B4 | – | – | < 10 nM | – | – | – | – | – |
| B5 | – | – | < 10 nM | – | – | – | – | – |
| B6 | – | < 25 nM | – | < 10 nM | 25 to 100 nM | 10 to 25 nM | – | – |
| B7 | – | < 25 nM | – | < 10 nM | – | 10 to 25 nM | 10 to 25 nM | – |
| B8 | < 10 nM | < 25 nM | – | < 10 nM | – | – | – | < 10 nM |
| B9 | < 10 nM | < 25 nM | – | < 10 nM | – | – | – | < 10 nM |
| B10 | < 10 nM | < 25 nM | – | < 10 nM | – | – | – | < 10 nM |
| B11 | < 10 nM | < 25 nM | – | < 10 nM | – | – | – | < 10 nM |
| B12 | – | < 25 nM | – | < 10 nM | – | – | 10 to 25 nM | < 10 nM |
| B13 | – | < 25 nM | – | < 10 nM | – | – | 10 to 25 nM | < 10 nM |
| B14 | – | – | < 10 nM | – | – | – | – | – |
| B15 | < 10 nM | < 25 nM | – | < 10 nM | – | – | – | < 10 nM |
